We go through three molecules from patent publication US10227617B2, “Sequestration of carbon dioxide with hydrogen to useful products” (UNIVERSITY OF GEORGIA RESEARCH FOUNDATION, INC., priority 2012, dated 2019).

For data set [1] the following is noted: at 65 C; cited from earlier work.
Substrate in data set [2]: CC(=O)CC(=O)SCCNC(=O)CCNC(=O)[C@H](O)C(C)(C)COP(=O)(O)OP(=O)(O)OC[C@H]1O[C@@H](n2cnc3c(N)ncnc32)[C@H](O)[C@@H]1OP(=O)(O)O
The experiment in a line: purified protein, by the assay type. As to conditions: other: Msed_0656, 70° C., pH 7.5; 70.0 °C.

Data set [3] can be described thus: Acetoacetyl-CoA β-ketothiolase discontinuous DTNB assay. It counts as biochemical. To be noted: 70° C.
Substrate in data set [4]: C/C=C/C(=O)SCCNC(=O)CCNC(=O)[C@H](O)C(C)(C)COP(=O)(O)OP(=O)(O)OC[C@H]1O[C@@H](n2cnc3c(N)ncnc32)[C@H](O)[C@@H]1OP(=O)(O)O
Kind of data set: crotonyl-CoA hydratase reaction of Msed_0399, NAD+ reduction at 340 nm. Format: biochemical, Metallosphaera sedula. To be noted: other: Msed_0399 (C-CoA), 70° C., pH 7.0. From the text:
(§1) The crotonyl-CoA hydratase/(S)-3-hydroxybutyrl-CoA dehydrogenase activity of a polypeptide may be determined by routine methods known in the art. An example of such a polypeptide includes an amino acid sequence encoded by coding sequence Msed_0399 of Genbank accession NC_009440 and disclosed at SEQ ID NO:16.
(§2) Heterologous expression of M. sedula genes in E. coli. Msed_0406, Msed_1321, Msed_0399, and Msed_0656 were amplified from genomic DNA using primers from IDT Technologies (Coralville, Iowa). Msed_0406 was cloned into pET46-Ek/LIC with an N-terminal His6 tag, as described in Example 1. Msed_1321 was cloned with an N-terminal His6 tag into a modified pETA vector, into which the anaerobic hya promoter from E. coli had been inserted to allow for anaerobically-regulated expression (Sun et al., 2010. PLoS One 5:e10526). Msed_0399 was cloned into pET21b without a His-tag, and Msed_0656 was cloned into pCDF-Ek/LIC with an N-terminal His6 tag. All four constructs were individually cloned into NovaBlue GigaSingles E. coli competent cells and selected by growth on LB-agar supplemented with antibiotic. Sequences were confirmed by Eton Biosciences, Inc. (Durham, N.C.). Next, the plasmids were transformed into E. coli Rosetta 2 (DE3) cells for protein expression. Rosetta strains containing pET46-0406, pET21b-0399, and pCDF-0656 were grown and expressed aerobically at 37° C. for 16 h in Studier's auto-inducing medium ZYM-5052 (Studier, 2005. Protein Expression and Purification 41:207-234). Rosetta cells containing pETA-1321 plasmid were grown in a 2 L Applikon bioreactor (37° C., 800 rpm, pH 6.7, 0.5 slpm air) in Studier's non-inducing medium ZYM-505 with 0.5 mM FeCl3. […]
(§3) Crotonyl-CoA hydratase/(S)-3-Hydroxybutyryl-CoA dehydrogenase (Msed_0399). […] Enzyme activity was measured spectrophotometrically at 70° C. by following NAD^+ reduction at 340 nm (extinction coeffienct at 340 nm=[…]) (Berg et al., 2007. Science 318:1782-1786). […]

Data set [5] can be described thus: Crotonyl-CoA hydratase assay, NAD+ reduction at 340 nm. It counts as biochemical. To be noted: C-CoA, hydratase reaction; 70° C. The procedure: (§4) Crotonyl-CoA hydratase/(S)-3-Hydroxybutyryl-CoA dehydrogenase (Msed_0399). The enzyme was purified first using a Q-sepharose HiLoad 16/10 anion exchange column (GE Healthcare). The protein was loaded onto the column with 20 mM Tris, pH 8.0, and eluted with 20 mM Tris, 1 M NaCl, pH 8.0 using a linear elution gradient. Fractions containing Msed_0399 were confirmed with SDS-PAGE, collected and dialyzed into buffer for size exclusion chromatography (50 mM potassium phosphate, 150 mM NaCl, pH 7.0). The partially-purified protein was further separated on a HiLoad 26/600 Superdex 200 PG column, and the elution fractions containing Msed_0399 were collected, concentrated, and dialyzed into reaction buffer (100 mM MOPS, pH 7.5), and then either stored at 4° C. for immediate use or mixed with glycerol to 20% and stored at −20° C. Enzyme activity was measured spectrophotometrically at 70° C. by following NAD^+ reduction at 340 nm (extinction coeffienct at 340 nm=[…]) (Berg et al., 2007. Science 318:1782-1786). The assay mixture contained 20 mM MOPS (pH 7.0), 5 mM MgCl2, 2 mM NAD^+, 0.5 mM crotonyl-CoA or (S)-3-hydroxybutyryl-CoA, and purified enzyme. The reaction mixture was preheated for 2 min at 70° C. and the reaction initiated by addition of substrate.

The nature of data set [6]: (S)-3-Hydroxybutyryl-CoA dehydrogenase assay, NAD+ reduction at 340 nm. Format: biochemical. As to conditions: 3HB-CoA, dehydrogenase reaction; 70° C. The procedure:
as §4

Substrate in data set [7]: C[C@H](O)CC(=O)SCCNC(=O)CCNC(=O)[C@H](O)C(C)(C)COP(=O)(O)OP(=O)(O)OC[C@H]1O[C@@H](n2cnc3c(N)ncnc32)[C@H](O)[C@@H]1OP(=O)(O)O
The experiment in a line: (S)-3-hydroxybutyryl-CoA dehydrogenase reaction of Msed_0399, NAD+ reduction at 340 nm. Format: biochemical, Metallosphaera sedula. As to conditions: other: Msed_0399 (3HB-CoA), 70° C., pH 7.0.
Source text: as §1, §2, §3

Usually Km stands for the concentration of substrate that gives half-maximal velocity. By Vmax is commonly meant the top rate of the reaction or transport when substrate is in excess. As usually defined, the kcat is the maximal rate divided by the concentration of active sites.

As for `O=C(O)O` [carbonic acid], the “apparent pKa of the ionization to bicarbonate” value in data set [1] is “about 6.3”.

B1: Metallosphaera sedula acetoacetyl-CoA β-ketothiolase Msed_0656, SEQ ID NO:17, recombinant (Metallosphaera sedula DSM 5348) (protein)
chain: MPDVYIVSAVRTPIGRFGGSLKSVKPQMLGAIAIKEALRRANTDPSRVELTIMGNVLRSGHGQDLARQAALLAGIPWEVDGYCVDMVCSSGMMGVTNAAQMIKSGDADVVVAGGMESMSQSMLAVNSEVRWGVKFLSGKSLNFIDTMLVDGLTDPFNLKLMGQEADMVARERDISRRELDEVAFESHRRAHQAWEKGLFKSEVIPVNLDEGKLERDEGIRPDTTMEKLSSLKPAFTENGYHTAGNSSQISDGAVAMVLMSEKAVKEFGVDPVAKILGYSWVGIESWRFTEAPLYSVRKLLTRLNMNITQFDYFENNEAFAVNNVLFHRYLGVPYDQLNVFGGAIALGHPIGASGARIMVTLLNVLSKMNATRGIASICHGVGGSTAIALELLRPL
In the case of B1, in data set [2], the Michaelis constant (Km) came out at 0.18 mM, the Vmax came out at 1400 µmol/min/mg and the turnover number (kcat) came to 1000 s⁻¹. Further, the maximal velocity (Vmax) in data set [3] came out at 1400 µmol/min/mg.

B2: Metallosphaera sedula crotonyl-CoA hydratase/(S)-3-hydroxybutyryl-CoA dehydrogenase Msed_0399, SEQ ID NO:16, recombinant (Metallosphaera sedula DSM 5348) (protein)
chain: MKVTVIGSGVMGHGIAELAAIAGNEVWMNDISTEILQQAMERIKWSLSKLRESGSLKEGVEQVLARIHPETDQAQALKGSDFVIEAVKEDLELKRTIFRNAEAHASPSAVLATNTSSLPISEIASVLKSPQRVVGMHFFNPPVLMPLVEIVRGKDTSDEVVKTTAEMAKSMNKETIVVKDVPGFFVNRVLLRIMEAGCYLVEKGIASIQEVDSSAIEELGFPMGVFLLADYTGLDIGYSVWKAVTARGFKAFPCSSTEKLVSQGKLGVKSGSGYYQYPSPGKFVRPTLPSTSKKLGRYLISPAVNEVSYLLREGIVGKDDAEKGCVLGLGLPKGILSYADEIGIDVVVNTLEEMRQTSGMDHYSPDPLLLSMVKEGKLGRKSGQGFHTYAHEEAKYSTIVVRVEPPLAWIVLNRPTRYNAINGDMIREINQALDSLEEREDVRVIAITGQGRVFSAGADVTEFGSLTPVKAMIASRKFHEVFMKIQFLTKPVIAVINGLALGGGMELALSADFRVASKTAEMGQPEINLGLIPGGGGTQRLSRLSGRKGLELVLTGRRVKAEEAYRLGIVEFLAEPEELESEVRKLANAIAEKSPLAVASAKLAYKLGEETHIWTGTSLEASLFGLLFSTKDFEEGVRAFLEKRKPNFRGE
As for B2, the values for the Km in data set [4] and in data set [7] were 0.07 mM and 0.06 mM, respectively. In addition, the Vmax in data set [4] worked out at 20 µmol/min/mg; in data set [5], 20 µmol/min/mg; in data set [6] it was 16 µmol/min/mg; in data set [7] it was 16 µmol/min/mg. Also, the kcat in data set [4] was 19 s⁻¹; in data set [7], 15 s⁻¹.
